Measurements published in article PMC11444770, “Moesin contributes to heat shock gene response through direct binding to the Med15 subunit of the Mediator complex in the nucleus” (Open Biology, 2024).

T1: GST-Med15 (Drosophila melanogaster, UniProt Q9Y149 1-749)
T1 construct: Med15, Drosophila Mediator subunit; CDS amplified with the primers Med15 pGex6P-1 Fw/Rev (start to stop codon) and cloned into pGex6P-1; source: E. coli SixPack, purified on Glutathione Sepharose 4B, kept on the beads; not shown: GST, N-terminal, kept
T1 sequence (looked up): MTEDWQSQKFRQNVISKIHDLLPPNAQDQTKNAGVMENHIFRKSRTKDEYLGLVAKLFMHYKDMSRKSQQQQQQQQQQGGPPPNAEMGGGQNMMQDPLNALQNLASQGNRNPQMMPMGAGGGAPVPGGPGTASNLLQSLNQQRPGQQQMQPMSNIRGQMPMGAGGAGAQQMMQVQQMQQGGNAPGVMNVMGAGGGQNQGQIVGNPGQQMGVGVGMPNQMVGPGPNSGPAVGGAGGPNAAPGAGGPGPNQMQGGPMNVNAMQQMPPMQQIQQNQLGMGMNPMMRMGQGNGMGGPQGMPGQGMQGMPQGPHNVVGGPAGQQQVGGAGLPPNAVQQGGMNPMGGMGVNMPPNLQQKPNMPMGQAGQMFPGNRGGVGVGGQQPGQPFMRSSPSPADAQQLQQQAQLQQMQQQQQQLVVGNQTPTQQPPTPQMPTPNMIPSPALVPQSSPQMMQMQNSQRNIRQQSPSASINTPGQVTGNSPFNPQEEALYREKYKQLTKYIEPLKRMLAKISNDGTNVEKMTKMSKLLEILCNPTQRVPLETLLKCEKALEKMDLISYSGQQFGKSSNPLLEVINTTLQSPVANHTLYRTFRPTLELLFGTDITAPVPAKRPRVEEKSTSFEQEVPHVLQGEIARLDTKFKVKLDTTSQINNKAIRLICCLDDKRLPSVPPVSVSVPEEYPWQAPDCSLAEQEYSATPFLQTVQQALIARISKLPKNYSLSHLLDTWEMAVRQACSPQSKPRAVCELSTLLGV

B1: 6xHis-Hsf (natural protein, Drosophila melanogaster, UniProt P22813 1-691, looked up)
chain: MSRSRSSAKAVQFKHESEEEEEDEEEQLPSRRMHSYGDAAAIGSGVPAFLAKLWRLVDDADTNRLICWTKDGQSFVIQNQAQFAKELLPLNYKHNNMASFIRQLNMYGFHKITSIDNGGLRFDRDEIEFSHPFFKRNSPFLLDQIKRKISNNKNGDDKGVLKPEAMSKILTDVKVMRGRQDNLDSRFSAMKQENEVLWREIASLRQKHAKQQQIVNKLIQFLITIVQPSRNMSGVKRHVQLMINNTPEIDRARTTSETESESGGGPVIHELREELLDEVMNPSPAGYTAASHYDQESVSPPAVERPRSNMSISSHNVDYSNQSVEDLLLQGNGTAGGNILVGGAASPMAQSVSQSPAQHDVYTVTEAPDSHVQEVPNSPPYYEEQNVLTTPMVREQEQQKRQQLKENNKLRRQAGDVILDAGDILVDSSSPKAQRTSIQHSTQPDVMVQPMIIKSEPENSSGLMDLMTPANDLYSVNFISEDMPTDIFEDALLPDGVEEAAKLDQQQKFGQSTVSSGKFASNFDVPTNSTLLDANQASTSKAAAKAQASEEEGMAVAKYSGAENGNNRDTNNSQLLRMASVDELHGHLESMQDELETLKDLLRGDGVAIDQNMLMGLFNDSDLMDNYGLSFPNDSISSEKKAPSGSELISYQPMYDLSDILDTDDGNNDQEASRRQMQTQSSVLNTPRHEL
notes: heat shock factor (Hsf), the Drosophila Hsf1 homologue; The methods say C-terminal 6xHis tagging in pDEST17, while the label 6xHis-Hsf puts the tag first; as far as I recall pDEST17 adds an N-terminal His tag; also called heat shock factor; source: E. coli, purified (HisPur Cobalt Resin or Ni-NTA beads); not shown: 6xHis, C-terminal, kept
B2: GST-Med17 (natural protein, Drosophila melanogaster, UniProt Q9VEC1 1-642, looked up)
chain: MSNSVNISVETTCENQIREIGYDGTELYQPPPTLSESLAKCAARIDFSKTSLDDLKKEEKSAAAAADEDKDATQFQESLWPWDAVRNKLKDALTEICVLSDVISIAKDKRYLVLDPLLEEADDTKPIVQVYSRKKAISQAAQVLLSGAERLRNAHSEQRNRNVSDFHIELLRLRQNWRLKKVSNAIIGDLSYRTAGSKFGMSGTFEVTKAEETGDEDTASSSNSSSSVSGNNGMQLKASSALRVIVPAELQGVAYIKVITQKDQEDLCTAQLNLMGHGPNITAQVGVWQKTLEFAQNVLFCKELFAQLAREAIQLQAPIPHVVIGNQIRATLLPNIQLIISLCHSTTFDSSQPAPINDHDHVLEHSLHQLLREVHYKNSHHPFPHPASAPLGPTKKRMLAGPMAADRETLLDMTKSQTILEQIIAQAQHIFMRKRTQYVLDTLARDVKDPQIVSHWNAMNSPTMSCVKINIVTHGYDAIGRTSLVIHVKERSLKCICRDGRVMRLSYEPQELRDLILCQINSHQISCLISLARCMSWTVLSNSNHLGIGKVEPLGNASSCLLASPNSDRMIAVQIRCDPQIDVKVYIARSPRQDFFPSPLVPEKLWENLGGTFKEVRFDKIEGKSFLNKMEFLMASLTSNTA
notes: Med17, Drosophila Mediator subunit; CDS amplified with the primers Med17 pGex6P-1 Fw/Rev (start to stop codon) and cloned into pGex6P-1; source: E. coli SixPack, purified on Glutathione Sepharose 4B, kept on the beads; not shown: GST, N-terminal, kept

What was measured:
Experiment in all cases: pull-down; GST-6xHis pull-down: GST-tagged baits immobilised on glutathione beads, purified 6xHis-tagged preys; 50 mM Hepes pH 7.5, 150 mM NaCl, 2 mM MgCl2, 1 mM EGTA, 1 mM DTT, 0.1% Triton X-100, 0.5 mg/ml BSA; 1.5 h at 4°C; western blot
Conditions in all cases: both partners purified
GST-Med17 = target: B2
GST-Med15 = target: T1, GST-Med15
6xHis-Hsf = target: B1

Binder | binding result (GST-Med17) | binding result (GST-Med15) | binding result (6xHis-Hsf)
6xHis-FERM-Moe (domain or fragment, Drosophila melanogaster, UniProt P46150 1-484, looked up, Drosophila Moesin, amino acids 1-484 (FERM-Moe); The methods say C-terminal 6xHis tagging in pDEST17, while the label 6xHis-FERM-Moe puts the tag first; as far as I recall pDEST17 adds an N-terminal His tag; also called 6xHis-tagged FERM-Moesin; source: E. coli, purified (HisPur Cobalt Resin or Ni-NTA beads); not shown: 6xHis, C-terminal, kept) MSPKALNVRVTTMDAELEFAIQSTTTGKQLFDQVVKTIGLREVWFFGLQYTDSKGDSTWIKLYKKVMNQDVKKENPLQFRFRAKFYPEDVAEELIQDITLRLFYLQVKNAILTDEIYCPPETSVLLASYAVQARHGDHNKTTHTAGFLANDRLLPQRVIDQHKMSKDEWEQSIMTWWQEHRSMLREDAMMEYLKIAQDLEMYGVNYFEIRNKKGTDLWLGVDALGLNIYEQDDRLTPKIGFPWSEIRNISFSEKKFIIKPIDKKAPDFMFFAPRVRINKRILALCMGNHELYMRRRKPDTIDVQQMKAQAREEKNAKQQEREKLQLALAARERAEKKQQEYEDRLKQMQEDMERSQRDLLEAQDMIRRLEEQLKQLQAAKDELELRQKELQAMLQRLEEAKNMEAVEKLKLEEEIMAKQMEVQRIQDEVNAKDEETKRLQDEVEDARRKQVIAAEAAAALLAASTTPQHHHVAEDENENEEELT | binds | binds | –
B1 | – | binds | –
B2 | – | – | binds
GST-FERM-Moesin (domain or fragment, Drosophila melanogaster, UniProt P46150 1-484, looked up, pGex6P-1 vector; also called GST-Moesin; source: E. coli SixPack, purified on Glutathione Sepharose 4B, kept on the beads; not shown: GST, N-terminal, kept) MSPKALNVRVTTMDAELEFAIQSTTTGKQLFDQVVKTIGLREVWFFGLQYTDSKGDSTWIKLYKKVMNQDVKKENPLQFRFRAKFYPEDVAEELIQDITLRLFYLQVKNAILTDEIYCPPETSVLLASYAVQARHGDHNKTTHTAGFLANDRLLPQRVIDQHKMSKDEWEQSIMTWWQEHRSMLREDAMMEYLKIAQDLEMYGVNYFEIRNKKGTDLWLGVDALGLNIYEQDDRLTPKIGFPWSEIRNISFSEKKFIIKPIDKKAPDFMFFAPRVRINKRILALCMGNHELYMRRRKPDTIDVQQMKAQAREEKNAKQQEREKLQLALAARERAEKKQQEYEDRLKQMQEDMERSQRDLLEAQDMIRRLEEQLKQLQAAKDELELRQKELQAMLQRLEEAKNMEAVEKLKLEEEIMAKQMEVQRIQDEVNAKDEETKRLQDEVEDARRKQVIAAEAAAALLAASTTPQHHHVAEDENENEEELT | – | – | binds
